Laboratory results taken from article PMC6468240.
pKd: −log10 of the molar value.

Experiments:
[1] = molecular target: recombinant NgAgo-His (Natronobacterium gregoryi); assay: SPR
[2] = molecular target: recombinant E. coli recA, His-tagged (E. coli) (UniProt P0A7G6); assay: SPR

Substance | pKd [1] | koff [1] [s⁻¹] | kon [1] [M⁻¹ s⁻¹] | pKd [2] | koff [2] [s⁻¹] | kon [2] [M⁻¹ s⁻¹]
recombinant E. coli recA, His-tagged (from UniProt P0A7G6 1-353) (natural protein) | 7.37 | 0.00024 | 5740 |  |  | 
recombinant NgAgo-His (natural protein) |  |  |  | 7.51 | 0.000707 | 23200
